{"source": "paper PMC2857095", "about": "(The Journal of Biological Chemistry, 2010)", "binders": {"B1": {"name": "MutL (natural protein, UniProt P23367 1-615, looked up)", "chain": "MPIQVLPPQLANQIAAGEVVERPASVVKELVENSLDAGATRIDIDIERGGAKLIRIRDNGCGIKKDELALALARHATSKIASLDDLEAIISLGFRGEALASISSVSRLTLTSRTAEQQEAWQAYAEGRDMNVTVKPAAHPVGTTLEVLDLFYNTPARRKFLRTEKTEFNHIDEIIRRIALARFDVTINLSHNGKIVRQYRAVPEGGQKERRLGAICGTAFLEQALAIEWQHGDLTLRGWVADPNHTTPALAEIQYCYVNGRMMRDRLINHAIRQACEDKLGADQQPAFVLYLEIDPHQVDVNVHPAKHEVRFHQSRLVHDFIYQGVLSVLQQQLETPLPLDDEPQPAPRSIPENRVAAGRNHFAEPAAREPVAPRYTPAPASGSRPAAPWPNAQPGYQKQQGEVYRQLLQTPAPMQKLKAPEPQEPALAANSQSFGRVLTIVHSDCALLERDGNISLLSLPVAERWLRQAQLTPGEAPVCAQPLLIPLRLKVSAEEKSALEKAQSALAELGIDFQSDAQHVTIRAVPLPLRQQNLQILIPELIGYLAKQSVFEPGNIAQWIARNLMSEHAQWSMAQAITLLADVERLCPQLVKTPPGGLLQSVDLHPAIKALKDE"}}, "molecular_target": "T1, DNA mismatch repair protein MutS, wild type (E. coli, UniProt P23909 1-853)", "T1 sequence (looked up)": "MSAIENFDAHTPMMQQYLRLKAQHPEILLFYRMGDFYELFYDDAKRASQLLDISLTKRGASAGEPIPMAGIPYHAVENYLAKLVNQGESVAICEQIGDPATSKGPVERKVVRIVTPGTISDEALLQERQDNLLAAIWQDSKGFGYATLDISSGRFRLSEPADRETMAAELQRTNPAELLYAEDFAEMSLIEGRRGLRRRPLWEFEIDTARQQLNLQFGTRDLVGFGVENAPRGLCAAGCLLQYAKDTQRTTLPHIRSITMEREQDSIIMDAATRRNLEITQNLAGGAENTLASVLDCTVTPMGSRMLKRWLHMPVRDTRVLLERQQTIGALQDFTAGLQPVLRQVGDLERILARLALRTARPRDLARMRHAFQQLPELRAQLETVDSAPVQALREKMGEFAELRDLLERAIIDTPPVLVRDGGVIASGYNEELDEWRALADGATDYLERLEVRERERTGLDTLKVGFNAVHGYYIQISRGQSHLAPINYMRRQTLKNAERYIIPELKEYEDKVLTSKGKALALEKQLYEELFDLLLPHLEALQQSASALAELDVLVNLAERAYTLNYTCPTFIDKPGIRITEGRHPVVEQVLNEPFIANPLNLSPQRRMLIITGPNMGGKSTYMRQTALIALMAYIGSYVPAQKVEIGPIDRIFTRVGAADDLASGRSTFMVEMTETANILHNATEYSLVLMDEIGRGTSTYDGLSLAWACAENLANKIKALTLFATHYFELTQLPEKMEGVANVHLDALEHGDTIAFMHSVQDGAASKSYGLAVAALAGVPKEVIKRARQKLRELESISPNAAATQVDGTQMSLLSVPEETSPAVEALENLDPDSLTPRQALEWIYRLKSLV", "experiment": "SPR", "data": [{"binder": "B1", "values": [{"measurement": "binding result", "value": "binds"}]}]}
